From IntAct's records for PubMed 20608975
Values belong to the substance of their own block, whether it stands above or below them.

Columns and labels:
[1] = target: gors2_rat Gorasp2 (UniProt Q9R064)
[2] = target: gors2_rat Gorasp2 (UniProt Q9R064); remark: listed apart in the source
[3] = target: gors2_rat Gorasp2 (UniProt Q9R064); remark: listed apart in the source
[4] = target: mmp14_human MMP14 (UniProt P50281)
[5] = target: gors2_rat Gorasp2 (UniProt Q9R064); remark: listed apart in the source
[6] = target: gors2_rat Gorasp2 (UniProt Q9R064); remark: listed apart in the source
[7] = target: gors2_rat Gorasp2 (UniProt Q9R064); remark: listed apart in the source

Substance: Matrix metalloproteinase-14 (Homo sapiens) (from UniProt P50281) G566A
effect of a mutation on the interaction [1]: decreasing interaction

Substance: Golgi reassembly-stacking protein 2 (Rattus norvegicus (Rat)) (from UniProt Q9R064) G2A
effect of a mutation on the interaction [4]: disrupting interaction

Substance: Matrix metalloproteinase-14 (Homo sapiens) (from UniProt P50281) R569A
effect of a mutation on the interaction [5]: decreasing interaction

Substance: Matrix metalloproteinase-14 (Homo sapiens) (from UniProt P50281) L578A
effect of a mutation on the interaction [6]: decreasing interaction

Substance: Matrix metalloproteinase-14 (Homo sapiens) (from UniProt P50281) P568A
effect of a mutation on the interaction [5]: decreasing interaction

Substance: Matrix metalloproteinase-14 (Homo sapiens) (from UniProt P50281) S577A
effect of a mutation on the interaction [6]: decreasing interaction

Substance: Matrix metalloproteinase-15 (Homo sapiens), P51511 L658A
effect of a mutation on the interaction [3]: decreasing interaction

Substance: Matrix metalloproteinase-14 (Homo sapiens) (from UniProt P50281) T567A
effect of a mutation on the interaction [1]: decreasing interaction

Substance: Matrix metalloproteinase-14 (Homo sapiens) (from UniProt P50281) R570A
effect of a mutation on the interaction [5]: decreasing interaction

Substance: Matrix metalloproteinase-14 (Homo sapiens) (from UniProt P50281) Y573A
effect of a mutation on the interaction [2]: disrupting interaction

Substance: Matrix metalloproteinase-14 (Homo sapiens) (from UniProt P50281) Q575A
effect of a mutation on the interaction [7]: decreasing interaction

Substance: Matrix metalloproteinase-14 (Homo sapiens) (from UniProt P50281) C574A
effect of a mutation on the interaction [7]: decreasing interaction

Second part, the substance after the results:

effect of a mutation on the interaction [1]: decreasing interaction
Substance: Matrix metalloproteinase-14 (Homo sapiens) (from UniProt P50281) H565A

effect of a mutation on the interaction [2]: disrupting interaction
Substance: Matrix metalloproteinase-14 (Homo sapiens) (from UniProt P50281) L571A

effect of a mutation on the interaction [3]: decreasing interaction
Substance: Matrix metalloproteinase-15 (Homo sapiens), P51511 Y660A

effect of a mutation on the interaction [2]: disrupting interaction
Substance: Matrix metalloproteinase-14 (Homo sapiens) (from UniProt P50281) L572A

effect of a mutation on the interaction [7]: decreasing interaction
Substance: Matrix metalloproteinase-14 (Homo sapiens) (from UniProt P50281) R576A

effect of a mutation on the interaction [6]: decreasing interaction
Substance: Matrix metalloproteinase-14 (Homo sapiens) (from UniProt P50281) L579A

effect of a mutation on the interaction [3]: decreasing interaction
Substance: Matrix metalloproteinase-15 (Homo sapiens), P51511 L659A
